Assay results published in patent US20240018260A1 (AMUNIX PHARMACEUTICALS, published 2024).
Values belong to the binder of their own block, whether it stands above or below them.

How the values were obtained:
[1] = target: T1, human EpCAM on EpCAM positive human carcinoma cells (SW480, SK-OV-3) (human, UniProt P16422 24-314); assay: cell-based or functional assay
T1 sequence (looked up): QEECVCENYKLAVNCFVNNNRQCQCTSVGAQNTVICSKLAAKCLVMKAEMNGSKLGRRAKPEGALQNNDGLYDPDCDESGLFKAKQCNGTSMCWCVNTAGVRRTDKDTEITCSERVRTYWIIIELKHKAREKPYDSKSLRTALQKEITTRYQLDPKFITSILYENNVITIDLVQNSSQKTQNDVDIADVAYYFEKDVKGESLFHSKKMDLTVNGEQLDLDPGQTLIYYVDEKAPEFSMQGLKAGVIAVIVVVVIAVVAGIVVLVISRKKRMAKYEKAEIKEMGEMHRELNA

[2] = target: human CD3 on purified human CD3 positive T cells (human, UniProt P07766 23-207); assay: cell-based or functional assay
[3] = target: T2, recombinant human CD3 (rhCD3εδ) (human, UniProt P07766 23-126; P04234 22-105); assay: sandwich ELISA: rhCD3εδ coated on plate, detection with peroxidase-conjugated protein L
T2 chain: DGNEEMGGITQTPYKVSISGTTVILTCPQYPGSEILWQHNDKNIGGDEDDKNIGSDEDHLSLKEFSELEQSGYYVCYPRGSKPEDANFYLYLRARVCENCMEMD

[4] = target: T3, recombinant human EpCAM (rhEpCAM) (human, UniProt P16422 24-265); assay: sandwich ELISA: rhEpCAM coated on plate, detection with peroxidase-conjugated protein L
T3 construct: Bought recombinant protein coated on the ELISA plate
T3 sequence (looked up): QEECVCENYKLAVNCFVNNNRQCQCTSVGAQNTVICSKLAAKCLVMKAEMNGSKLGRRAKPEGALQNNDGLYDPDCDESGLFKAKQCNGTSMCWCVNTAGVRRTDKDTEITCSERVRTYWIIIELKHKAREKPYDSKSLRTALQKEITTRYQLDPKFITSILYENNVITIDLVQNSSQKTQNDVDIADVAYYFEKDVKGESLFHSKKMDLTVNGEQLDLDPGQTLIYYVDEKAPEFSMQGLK
Description: The binding capability of anti-EpCAM×anti-CD3 ProTIA composition was verified with an EpCAM/peroxidase-conjugated protein-L sandwich ELISA. In the ELISA binding assay, recombinant human EpCAM (rhEpCAM) (Sino BiologicalR&D Systems cat #10694-H08H960-EP-50) was coated on a 96-well, flat-bottomed plate at a concentration of 0.1 microg/100 microL. After overnight incubation at 4° C., the assay plate was washed and blocked with 3% bovine serum albumin (BSA) for 1 h at room temperature. The plate was washed again followed by the introduction of a dose range of non-cleavable anti-EpCAM×anti-CD3 ProTIA (i.e., a ProTIA without the release segment cleavage sequence and AC1484, a ProTIA chimeric polypeptide assembly composition) and protease-treated and protease-untreated anti-EpCAM×anti-CD3 ProTIA (e.g. AC1476). The dose range utilized for non-cleavable and protease-treated and untreated ProTIA was 0.0006 to 5 nM, achieved with a 1:6 fold serial dilution scheme from a starting concentration of 5 nM. The plate was allowed to incubate with shaking for 1 h at room temperature to allow the non-cleavable, protease-cleaved and uncleaved ProTIA to bind to the rhEpCAM coated on the plate. Unbound components were removed with a wash step and a peroxidase-conjugated protein L (PierceThermoFisher Scientific cat #32420) was added. After an appropriate incubation period that allowed protein-L to bind to the kappa light of the scFvs, any unbound reagent was removed by a wash step followed by the addition of tetramethylbenzidine (TMB) substrate to each well. TMB is a chromogenic substrate of peroxidase. After desired color intensity was reached, 0.2 N sulfuric acid was added to stop the reaction and absorbance (OD) was measured at 450 nm using a spectrophotometer. The intensity of the color is proportional to the concentration of non-cleavable, protease-treated and untreated anti-EpCAM×anti-CD3 ProTIA captured by the rhEpCAM/protein-L sandwich ELISA. The intensity of the color produced (measured OD) was plotted against protein concentration; and the concentration of non-cleavable, protease-cleaved and uncleaved anti-EpCAM×anti-CD3 ProTIA that gave half-maximal response (EC₅₀) was derived with a 4-parameter logistic regression equation using GraphPad prism software.

B1: AC1357, non-cleavable anti-EpCAM×anti-CD3 ProTIA without the release segment (bispecific antibody)
chain: HHHHHHHHELVMTQSPSSLTVTAGEKVTMSCKSSQSLLNSGNQKNYLTWYQQKPGQPPKLLIYWASTRESGVPDRFTGSGSGTDFTLTISSVQAEDLAVYYCQNDYSYPLTFGAGTKLEIKGGGGSGGGGSGGGGSEVQLLEQSGAELVRPGTSVKISCKASGYAFTNYWLGWVKQRPGHGLEWIGDIFPGSGNIHYNEKFKGKATLTADKSSSTAYMQLSSLTFEDSAVYFCARLRNWDEPMDYWGQGTTVTVSSGGGGSDVQLVQSGAEVKKPGASVKVSCKASGYTFTRYTMHWVRQAPGQGLEWIGYINPSRGYTNYADSVKGRFTITTDKSTSTAYMELSSLRSEDTATYYCARYYDDHYCLDYWGQGTTVTVSSGEGTSTGSGGSGGSGGADDIVLTQSPATLSLSPGERATLSCRASQSVSYMNWYQQKPGKAPKRWIYDTSKVASGVPARFSGSGSGTDYSLTINSLEAEDAATYYCQQWSSNPLTFGGGTKVEIKGSPGSPAGSPTSTEEGTSESATPESGPGTSTEPSEGSAPGSPAGSPTSTEEGTSTEPSEGSAPGTSTEPSEGSAPGTSESATPESGPGSEPATSGSETPGSEPATSGSETPGSPAGSPTSTEEGTSESATPESGPGTSTEPSEGSAPGTSTEPSEGSAPGSPAGSPTSTEEGTSTEPSEGSAPGTSTEPSEGSAPGTSESATPESGPGTSTEPSEGSAPGTSESATPESGPGSEPATSGSETPGTSTEPSEGSAPGTSTEPSEGSAPGTSESATPESGPGTSESATPESGPGSPAGSPTSTEEGTSESATPESGPGSEPATSGSETPGTSESATPESGPGTSTEPSEGSAPGTSTEPSEGSAPGTSTEPSEGSAPGTSTEPSEGSAPGTSTEPSEGSAPGTSTEPSEGSAPGSPAGSPTSTEEGTSTEPSEGSAPGTSESATPESGPGSEPATSGSETPGTSESATPESGPGSEPATSGSETPGTSESATPESGPGTSTEPSEGSAPGTSESATPESGPGSPAGSPTSTEEGSPAGSPTSTEEGSPAGSPTSTEEGTSESATPESGPGTSTEPSEGSAPGTSESATPESGPGSEPATSGSETPGTSESATPESGPGSEPATSGSETPGTSESATPESGPGTSTEPSEGSAPGSPAGSPTSTEEGTSESATPESGPGSEPATSGSETPGTSESATPESGPGSPAGSPTSTEEGSPAGSPTSTEEGTSTEPSEGSAPGTSESATPESGPGTSESATPESGPGTSESATPESGPGSEPATSGSETPGSEPATSGSETPGSPAGSPTSTEEGTSTEPSEGSAPGTSTEPSEGSAPGSEPATSGSETPGTSESATPESGPGTSTEPSEGSAPG
EC50, LDH release cytotoxicity, PBMC:SW480 5:1 [1]: 3.3 nM

EC50 [3]: 2.2 nM | EC50 [4]: 0.32 nM
B2: AC1484, non-cleavable anti-EpCAM×anti-CD3 ProTIA (without the release segment cleavage sequence) (bispecific antibody)
chain: DIQMTQSPSSLSASVGDRVTITCRSTKSLLHSNGITYLYWYQQKPGKAPKLLIYQMSNLASGVPSRFSSSGSGTDFTLTISSLQPEDFATYYCAQNLEIPRTFGQGTKVEIKGATPPETGAETESPGETTGGSAESEPPGEGQVQLVQSGPGLVQPGGSVRISCAASGYTFTNYGMNWVKQAPGKGLEWMGWINTYTGESTYADSFKGRFTFSLDTSASAAYLQINSLRAEDTAVYYCARFAIKGDYWGQGTLLTVSSGGGGSDIQMTQSPSSLSASVGDRVTITCRASQDIRNYLNWYQQKPGKAPKLLIYYTSRLESGVPSRFSGSGSGTDYTLTISSLQPEDFATYYCQQGNTLPWTFGQGTKVEIKGATPPETGAETESPGETTGGSAESEPPGEGEVQLVESGGGLVQPGGSLRLSCAASGYSFTGYTMNWVRQAPGKGLEWVALINPYKGVSTYNQKFKDRFTISVDKSKNTAYLQMNSLRAEDTAVYYCARSGYYGDSDWYFDVWGQGTLVTVSSGSPGSPAGSPTSTEEGTSESATPESGPGTSTEPSEGSAPGSPAGSPTSTEEGTSTEPSEGSAPGTSTEPSEGSAPGTSESATPESGPGSEPATSGSETPGSEPATSGSETPGSPAGSPTSTEEGTSESATPESGPGTSTEPSEGSAPGTSTEPSEGSAPGSPAGSPTSTEEGTSTEPSEGSAPGTSTEPSEGSAPGTSESATPESGPGTSTEPSEGSAPGTSESATPESGPGSEPATSGSETPGTSTEPSEGSAPGTSTEPSEGSAPGTSESATPESGPGTSESATPESGPGSPAGSPTSTEEGTSESATPESGPGSEPATSGSETPGTSESATPESGPGTSTEPSEGSAPGTSTEPSEGSAPGTSTEPSEGSAPGTSTEPSEGSAPGTSTEPSEGSAPGTSTEPSEGSAPGSPAGSPTSTEEGTSTEPSEGSAPGTSESATPESGPGSEPATSGSETPGTSESATPESGPGSEPATSGSETPGTSESATPESGPGTSTEPSEGSAPGTSESATPESGPGSPAGSPTSTEEGSPAGSPTSTEEGSPAGSPTSTEEGTSESATPESGPGTSTEPSEGSAPGTSESATPESGPGSEPATSGSETPGTSESATPESGPGSEPATSGSETPGTSESATPESGPGTSTEPSEGSAPGSPAGSPTSTEEGTSESATPESGPGSEPATSGSETPGTSESATPESGPGSPAGSPTSTEEGSPAGSPTSTEEGTSTEPSEGSAPGTSESATPESGPGTSESATPESGPGTSESATPESGPGSEPATSGSETPGSEPATSGSETPGSPAGSPTSTEEGTSTEPSEGSAPGTSTEPSEGSAPGSEPATSGSETPGTSESATPESGPGTSTEPSEGSAPGHHHHHH
notes: also called non-cleavable ProTIA; protease-noncleavable anti-EpCAM×anti-CD3 ProTIA
EC50, LDH release cytotoxicity, PBMC:SK-OV-3 5:1 [1]: 1.79 nM | EC50, LDH release cytotoxicity, purified human CD3 positive T cells:OVCAR-3 5:1 [2]: 0.086 nM | EC50, LDH release cytotoxicity, purified human CD3 positive T cells:SK-OV-3 5:1 [2]: 2.66 nM

EC50 [3]: 1.8 nM | fold hindrance of binding by XTEN864, against the cleaved and released anti-CD3scFv portion [3]: ~5.8 fold | EC50 [4]: 0.28 nM | fold hindrance of binding by XTEN864, against protease-treated ProTIA [4]: ≥ 2.3 fold
B3: AC1476 aEpCAM-aCD3-BSRS1-XTEN_AE864-His(6), protease-untreated (intact) anti-EpCAM×anti-CD3 ProTIA (bispecific antibody)
chain: DIQMTQSPSSLSASVGDRVTITCRSTKSLLHSNGITYLYWYQQKPGKAPKLLIYQMSNLASGVPSRFSSSGSGTDFTLTISSLQPEDFATYYCAQNLEIPRTFGQGTKVEIKGATPPETGAETESPGETTGGSAESEPPGEGQVQLVQSGPGLVQPGGSVRISCAASGYTFTNYGMNWVKQAPGKGLEWMGWINTYTGESTYADSFKGRFTFSLDTSASAAYLQINSLRAEDTAVYYCARFAIKGDYWGQGTLLTVSSGGGGSDIQMTQSPSSLSASVGDRVTITCRASQDIRNYLNWYQQKPGKAPKLLIYYTSRLESGVPSRFSGSGSGTDYTLTISSLQPEDFATYYCQQGNTLPWTFGQGTKVEIKGATPPETGAETESPGETTGGSAESEPPGEGEVQLVESGGGLVQPGGSLRLSCAASGYSFTGYTMNWVRQAPGKGLEWVALINPYKGVSTYNQKFKDRFTISVDKSKNTAYLQMNSLRAEDTAVYYCARSGYYGDSDWYFDVWGQGTLVTVSSGTAEAASASGLSGRSDNHSPLGLAGSPGSPAGSPTSTEEGTSESATPESGPGTSTEPSEGSAPGSPAGSPTSTEEGTSTEPSEGSAPGTSTEPSEGSAPGTSESATPESGPGSEPATSGSETPGSEPATSGSETPGSPAGSPTSTEEGTSESATPESGPGTSTEPSEGSAPGTSTEPSEGSAPGSPAGSPTSTEEGTSTEPSEGSAPGTSTEPSEGSAPGTSESATPESGPGTSTEPSEGSAPGTSESATPESGPGSEPATSGSETPGTSTEPSEGSAPGTSTEPSEGSAPGTSESATPESGPGTSESATPESGPGSPAGSPTSTEEGTSESATPESGPGSEPATSGSETPGTSESATPESGPGTSTEPSEGSAPGTSTEPSEGSAPGTSTEPSEGSAPGTSTEPSEGSAPGTSTEPSEGSAPGTSTEPSEGSAPGSPAGSPTSTEEGTSTEPSEGSAPGTSESATPESGPGSEPATSGSETPGTSESATPESGPGSEPATSGSETPGTSESATPESGPGTSTEPSEGSAPGTSESATPESGPGSPAGSPTSTEEGSPAGSPTSTEEGSPAGSPTSTEEGTSESATPESGPGTSTEPSEGSAPGTSESATPESGPGSEPATSGSETPGTSESATPESGPGSEPATSGSETPGTSESATPESGPGTSTEPSEGSAPGSPAGSPTSTEEGTSESATPESGPGSEPATSGSETPGTSESATPESGPGSPAGSPTSTEEGSPAGSPTSTEEGTSTEPSEGSAPGTSESATPESGPGTSESATPESGPGTSESATPESGPGSEPATSGSETPGSEPATSGSETPGSPAGSPTSTEEGTSTEPSEGSAPGTSTEPSEGSAPGSEPATSGSETPGTSESATPESGPGTSTEPSEGSAPGHHHHHH
notes: also called ProTIA-X; protease-untreated anti-EpCAM×anti-CD3 ProTIA
EC50, LDH release cytotoxicity, PBMC:SK-OV-3 5:1 [1]: 0.136 nM | EC50, LDH release cytotoxicity, purified human CD3 positive T cells:OVCAR-3 5:1 [2]: 0.0007 nM | EC50, LDH release cytotoxicity, purified human CD3 positive T cells:SK-OV-3 5:1 [2]: 0.134 nM
